Read-outs that look alike come from different tables or passages of the source.
What was measured:
[1] = molecular target: T1, FRHSVV peptide, the common epitope of mutant p53 (biotin conjugate) (human); assay: BIAcore SPR
[2] = molecular target: T1, FRHSVV peptide, the common epitope of …

B1: A6 scFv (scFv)
scFv: VQLLESGGGLVQPGGSPRLSCAASGFTFSGYWMHWVRQAPGKGLEWVSEISGSGDSTHYGDSVKGRFTISRDNSKNTLYLQMNSLRAEDTAVYYCARGRNGSLDYWGQGTLVTVSSGSAGGGGSGGGGSGGGGSDIVLTQPPSASGTPGQRVTISCTGGRFNIGDYAVNWYQQLPGKAPKLLIYDNDRRPSGVSDRFSGSKSGTSASLAISGLRSEDEADYYCAAWDDSLDGLVFGGGTQLTV
Kd [1]: 23 nM

B2: E6 scFv (scFv)
scFv: VQLLESGGGLVQPGGSLRLSCAASGFTFSGYWMHWVRQAPGKGLEWVSEISGSGDSTHYGDSVKGRFTISRDNSKNTLYLQMNSLRAEDTAVYYCARGRNGSLDYWGQGTLVTVSSGSAGGGGSGGGGSGGGGSDIVLTQPPSASGTPGQRVTISCSGSSSNIGAGYDVHWYQQLPGTAPKLLIYGNTNRPSGVSDRFSGSKSGTSASLAISGLRSEDEADYYCQSFDSTLSGPVFGGGTKVTV
Kd [2]: 4.6e-05 nM

B3: F2 scFv (scFv)
scFv: VQLLESGGGLVQPGGSLRLSCAASGFTFSGYWMHWVRQAPGKGLEWVSEISGSGDSTHYGDSVKGRFTISRDNSKNTLYLQMNSLRAEDTAVYYCARGRNGSLDYWGQGTLVTVSSGSAGGGGSGGGGSGGGGSDIVLTQPPSASGTPGQRVTISCSGTSSNIGADYDVHWYQQLPGKAPKLLIYDNNKRPSGVSDRFSGSKSGTSASLAISGLRSEDEADYYCAAWDSSLSSVVFGGGTQLTV
Kd [2]: 11 nM

Reference: patent US20110262447A1
